# According to paper PMC6736635 (Nature structural & molecular biology, 2019):
# Molecular target: EZH2 (human, wild type, subunit of reconstituted PRC2 complexes) (human, UniProt Q15910-2 1-751)
# Test: SEC
binder,measurement,value
"EED (human, wild type, subunit of reconstituted PRC2 complexes) (natural protein) not shown",binding result,binds
